pKd: −log10 of the molar value.
Experiments:
Assay in all cases: fluorescence polarisation
[1] = biological target: BL6-22_Y4eK
[2] = biological target: Bim_A2eT_E2gG (UniProt O43521)
[3] = biological target: Bim_A2eT (UniProt O43521)
[4] = biological target: KL6-7_Y4eK
[5] = biological target: KL6-7_D3fA
[6] = biological target: Bim_R3bS (UniProt O43521)
[7] = biological target: Bim BH3 peptide (23 residues, fluoresceinated) (UniProt O43521)

Chain of Bcl-w (human), c-myc-tagged (Q92843 whole entry): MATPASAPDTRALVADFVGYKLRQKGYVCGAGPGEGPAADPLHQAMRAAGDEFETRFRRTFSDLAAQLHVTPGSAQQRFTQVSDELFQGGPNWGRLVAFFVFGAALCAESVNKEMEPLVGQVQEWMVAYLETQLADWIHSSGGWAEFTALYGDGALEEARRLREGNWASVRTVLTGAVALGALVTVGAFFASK
Chain of Bfl-1 (human), c-myc-tagged (Q16548 whole entry): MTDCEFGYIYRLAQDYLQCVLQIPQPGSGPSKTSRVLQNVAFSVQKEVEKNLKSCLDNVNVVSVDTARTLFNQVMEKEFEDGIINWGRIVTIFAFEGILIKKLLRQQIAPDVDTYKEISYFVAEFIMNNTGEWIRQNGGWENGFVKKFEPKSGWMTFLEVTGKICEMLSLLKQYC

Substance | pKd [1] | pKd [2] | pKd [3] | pKd [4] | pKd [5] | pKd [6] | pKd [7]
BHRF1 (Epstein-Barr virus Bcl-2 homolog), c-myc-tagged (from UniProt P03182 1-191) (natural protein) | 7.52 | < 6.00 | 7.19 | < 6.00 | < 6.00 | – | –
Bcl-2 (human), c-myc-tagged (from UniProt P10415 1-239) (natural protein) | – | 6.82 | 7.36 | – | – | 8.14 | –
Bcl-w (human), c-myc-tagged (from UniProt Q92843 1-193) (natural protein) | – | 7.01 | 7.40 | – | – | 7.74 | –
Bcl-xL (human), c-myc-tagged (from UniProt Q07817-1 1-233) (natural protein) | – | 7.38 | 7.74 | – | – | 8.42 | –
Bfl-1 (human), c-myc-tagged (from UniProt Q16548 1-175) (natural protein) | – | 6.59 | 7.49 | – | – | 8.28 | –
KSBcl-2 (Kaposi's sarcoma-associated herpesvirus Bcl-2 homolog), c-myc-tagged (from UniProt P90504 1-175) (natural protein) | – | 8.96 | 8.74 | – | – | 8.82 | –
M11 (murine gamma herpesvirus γHV68 Bcl-2 homolog), BAP- and His6-tagged (from UniProt P89884 1-171) (natural protein) | – | 7.82 | 7.11 | – | – | – | –
Mcl-1 (human), c-myc-tagged (from UniProt Q07820 1-350) (natural protein) | – | 8.80 | 9.21 | 5.11 | < 5.30 | > 9.00 | > 9.00
